Laboratory results published in paper PMC4626632, “The structure of Medicago truncatula δ^1-pyrroline-5-carboxylate reductase provides new insights into regulation of proline biosynthesis in plants” (Frontiers in Plant Science, 2015).

Legend:
[1] = target: T1, δ^1-pyrroline-5-carboxylate reductase (MtP5CR) (Medicago truncatula, UniProt G7KRM5); test: X-ray crystal structure of the cocrystallized complex ([…] Å); format: binding
T1 construct: gene MTR_7g090160; MtP5CR_1, His6-tag cleaved; homodecamer

[2] = target: T1, δ^1-pyrroline-5-carboxylate reductase (MtP5CR); test: NAD(P)H oxidation assay at […] nm, kinetic analysis of inhibition; format: biochemical
[3] = substrate: O=C(O)C1CCC=N1; test: steady-state kinetics of the purified enzyme, KM(app); format: biochemical, Medicago truncatula; conditions: NADPH C-terminal domain contains the P5C binding site
purified protein [4] = substrate: NC(=O)C1=CN([C@@H]2O[C@H](COP(=O)(O)OP(=O)(O)OC[C@H]3O[C@@H](n4cnc5c(N)ncnc54)[C@H](OP(=O)(O)O)[C@@H]3O)[C@@H](O)[C@H]2O)C=CC1; test: purified protein; conditions: varied: cofactor
purified protein [5] = substrate: NC(=O)C1=CN([C@@H]2O[C@H](COP(=O)(O)OP(=O)(O)OC[C@H]3O[C@@H](n4cnc5c(N)ncnc54)[C@H](O)[C@@H]3O)[C@@H](O)[C@H]2O)C=CC1; test: purified protein; conditions: varied: cofactor
[6] = target: the molecule itself; test: crystal structure; space group P1, one decamer in the asymmetric unit; 100 mM HEPES/MOPS pH 7.5, 10% PEG 4000, 20% glycerol, 30 mM MgCl2, 30 mM CaCl2, 19°C; unliganded and with NAD+, NADP+ or L-proline

For `NC(=O)c1ccc[n+]([C@@H]2O[C@H](COP(=O)([O-])OP(=O)(O)OC[C@H]3O[C@@H](n4cnc5c(N)ncnc54)[C@H](O)[C@@H]3O)[C@@H](O)[C@H]2O)c1` [NAD^+], the “X-ray crystal structure of the cocrystallized complex (1.85 Å)” value [1] was “In the case of NAD^+ (Figure 8A), the adenine N1 atom interacts with Nδ of Asn65”.

Work on `O=S(=O)(O)CCN1CCN(CCO)CC1` [HEPES, 2-[4-(2-hydroxyethyl)piperazin-1-yl]ethanesulfonic acid] yielded a Ki [2] of 1830 ± 80 µM.

B1: Medicago truncatula δ1-pyrroline-5-carboxylate reductase (enzyme, UniProt G7KRM5 1-274, looked up)
chain: MEIIPIPADSYTLGFIGAGKMAESIAKGAVRSGVLSPSRIKTAIHSNPARRTAFESIGITVLSSNDDVVRDSNVVVFSVKPQLLKDVVLKLKPLLTKDKLLVSVAAGIKMKDLQEWAGHERFIRVMPNTAATVGEAASVMSLGGAATEEDANLISQLFGSIGKIWKADDKYFDAITGLSGSGPAYIYLAIEALADGGVAAGLPRDLALSLASQTVLGAASMATQSGKHPGQLKDDVTSPGGTTIAGVHELEKAGFRGILMNAVVAAAKRSQELS
notes: P5C reductase (EC 1.5.1.2) of Medicago truncatula, isoform MtP5CR_1 (without the 29-residue insert of MtP5CR_2, A2Q2Y7); cDNA from leaf RNA; printed primers run from the ATG to the stop codon; monomer 28.5 kDa; Vector pMCSG68: His6 tag and TEV site at the N-terminus, cut off with TEV protease; Homodecamer (pentamer of dimers); also called MtP5CR; MtP5CR_1; source: E. coli BL21 Gold, purified …
In the case of B1, the Km [3] is reported as 20 ± 2 µM, the Km (purified protein [4]) is reported as 39 ± 3 µM and the Vmax (purified protein [4]) is reported as 36.1 ± 0.7 μkat (mg protein)^−1. The kcat (purified protein [4]) was 1113 s⁻¹, the kcat/Km (purified protein [4]) was 2.85e+07 M⁻¹ s⁻¹ and the Km (purified protein [5]) was 468 ± 22 µM. For the same molecule, the Vmax (purified protein [5]) was 92.4 ± 2.1 μkat (mg protein)^−1, the kcat (purified protein [5]) was 2972 s⁻¹ and the kcat/Km (purified protein [5]) was 6.35e+06 M⁻¹ s⁻¹. For the same molecule, the “stoichiometry N” value [6] was 10.
